Results from article PMC3367564.

Experiments:
MBP-sAnk1(29-155) = MBP-sAnk1(29-155) (UniProt P16157); experiment: SPR
MBP-sAnk1(29-155) D111R = MBP-sAnk1(29-155) D111R (UniProt P16157); experiment: SPR
obscurin = obscurin (UniProt Q5VST9); settings: cited from earlier work

Row | Substance | peak binding relative to wild type (MBP-sAnk1(29-155)) | ratio of binding to sAnk1-D111R over binding to wild type sAnk1 (MBP-sAnk1(29-155) D111R) | other results
1 | GST-Obsc(6316-6436), wild type (domain or fragment) | – | 1.7 | –
2 | small ankyrin 1 (from UniProt P16157) | – | – | Kd (obscurin): 130 nM
3 | GST-Obsc(6316-6436) K6337E (domain or fragment) | – | 1.7 | –
4 | GST-Obsc(6316-6436) K6338E (domain or fragment) | – | 3.7 | –
5 | GST-Obsc(6316-6436) E6327A (domain or fragment) | 40 % of control | – | –

Continued, in another order:

Row | peak binding relative to wild type (MBP-sAnk1(29-155)) | ratio of binding to sAnk1-D111R over binding to wild type sAnk1 (MBP-sAnk1(29-155) D111R) | Substance | other results
6 | 40 % of control | – | GST-Obsc(6316-6436) E6329A (domain or fragment) | –
7 | 10 % of control | – | GST-Obsc(6316-6436) with the two N-terminal glutamates changed to alanines (E6327A, E6329A) (domain or fragment) | –
8 | – | 1.7 | GST-Obsc(6316-6436) K6338A (domain or fragment) | –
